From patent publication US20200199236A1

How the values were obtained:
[1] = target: FcγRIIIa 158F (UniProt P08637); assay: biosensor with SA sensor, biotin-FcγRIIIa 158F loaded, antibody in solution
[2] = target: FcγRIIIa 158V (UniProt P08637); assay: biosensor with SA sensor, biotin-FcγRIIIa 158V loaded, antibody in solution (7 concentrations, 2x gradient from 500 nM)
Chain of FcγRIIIa 158V (P08637 17-208 F176V): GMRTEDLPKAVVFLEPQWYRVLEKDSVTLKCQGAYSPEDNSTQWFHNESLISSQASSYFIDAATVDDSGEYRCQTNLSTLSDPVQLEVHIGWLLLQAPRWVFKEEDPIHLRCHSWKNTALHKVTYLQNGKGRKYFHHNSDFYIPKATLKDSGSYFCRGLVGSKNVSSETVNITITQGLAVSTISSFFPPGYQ

Chain of FcγRIIIa 158F (P08637 17-208 limits assumed): as the sequence (P08637 17-208 F176V) above, with V160F counted along it

Kd [1]: 226 nM
Kd [2]: 36.8 nM
Substance: Obinutuzumab (antibody)
